Ends that are not written are not given here. * marks the point of attachment. Biotin = O=C1N[C@H]2[C@H](CS[C@H]2CCCCC(=O)*)N1

Test [1] deals with GST-DLG1 PDZ domain fusion protein (human homolog of Drosophila discs large protein AA275-477; PDZ domains 1-2 of 3) (human) [GST: P08515]. The experiment in a line: G assay, peptide titrated on immobilized GST-PDZ, saturation fit (apparent affinity).
For test [2], the target named is GST-NeDLG PDZ domain fusion protein (presynaptic protein sao102, neuroendocrine-dlg; PDZ domains 1-2 of 3) [GST: P08515]. The test is described as above.
GST-NeDLG PDZ domain fusion protein (presynaptic protein sao102, neuroendocrine-dlg; PDZ domains 1-2 of 3) [GST: P08515], sequence (P08515 1-218, tags or fused parts left off): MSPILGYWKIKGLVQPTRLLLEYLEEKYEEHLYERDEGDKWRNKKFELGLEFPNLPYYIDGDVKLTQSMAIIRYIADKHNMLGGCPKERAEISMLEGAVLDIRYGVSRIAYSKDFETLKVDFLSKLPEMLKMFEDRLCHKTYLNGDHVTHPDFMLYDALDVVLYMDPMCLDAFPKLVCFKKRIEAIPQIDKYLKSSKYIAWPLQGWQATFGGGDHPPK
In test [3] the target is GST-PSD95 PDZ domain fusion protein (human post-synaptic density protein 95 AA387-724; PDZ domains 1-3 of 3) (human) [GST: P08515]. The description is as above.
GST-PSD95 PDZ domain fusion protein (human post-synaptic density protein 95 AA387-724; PDZ domains 1-3 of 3) (human) [GST: P08515], sequence (P08515 1-218, tags or fused parts left off): as above
Test [4] concerns the target GST polypeptide alone (not a fusion protein) [GST: P08515]. The experiment in a line: G assay, immobilized GST alone (background control).

GST-DLG1 PDZ domain fusion protein (human homolog of Drosophila discs large protein AA275-477; PDZ domains 1-2 of 3) (human) [GST: P08515], sequence (P08515 1-218, tags or fused parts left off): as above
GST polypeptide alone (not a fusion protein) [GST: P08515], sequence (P08515 whole entry, the tested form may be a part): as the sequence (P08515 1-218, tags or fused parts left off) above

Turning to Biotin-KDITSDSENSNFRNEIQSLV [CD95 (Apo-1/Fas) C-terminal PL peptide AA13L, biotinylated], in test [1], the Kd turned out to be 54 µM.
As for ISGTPTSTMVHGMTSSSSVV (modifications not checked) [CLASP-2 C-terminal PL peptide AA2L (C-terminal 20 amino acids), biotinylated], the values for the Kd in test [2] and in test [3] were 7.5 µM and 45 µM, respectively. In test [4], this molecule returned an OD (binding to GST alone) below 0.2 OD units.

For the origin of these results see patent US20090149339A1.
